Measured values taken from the RNAGym collection of RNA variant scans (doi:10.1021/acssynbio.7b00057).

B1: Pistol ribozyme (parent)
chain: GGGUCGUUGUUCCAUAAUCGCGUGGAUAUGGCACGCAAGUUUCUACCGGGCACCGUAAAUGUCCGACUGGAGCCGUUCGGGCGGCUAUAAACAGACCUCAGGCCCGAAGCGUGGCGGCACCUGCCGCCGGUGGUAAAAAAGAUCGGAAGAGCACACGUCU

Variants of: B1
Assay: aptazyme ON/OFF ratio, guanine; higher = stronger switching; co-transcriptional cleavage with and without guanine

Variant | aptazyme ON/OFF ratio
U11C | 1.53
U11G | 1.22
U11A | 1.84
U10G U11A C12A C13G | 1.06
U10G U11A C12A C13U | 1.27
U10G U11A C12A C13A | 1.11
C12G C13A | 1.37
C12G C13G | 1.33
C12G C13U | 1.36
U11A C12G C13U | 1.42
U11A C12G C13G | 1.18
U11A C12G C13A | 1.11
U10G U11G C12U C13G | 1.3
U10G U11G C12U C13A | 1.32
U10G U11G C12U C13U | 1.26
U10G U11G C12G C13U | 1.26
U10G U11G C12G C13A | 1.1
U10G U11G C12G C13G | 1.18
U10C U11G C13U | 1.35
U10C U11G C13G | 1.22
U10C U11G C13A | 1.27
U10G C12U C13G | 1.28

Variant | aptazyme ON/OFF ratio
U10G C12U C13U | 1.15
U10G C12U C13A | 1.33
U10G U11C C12U C13A | 1.2
U10G U11C C12U C13G | 1.27
U10G U11C C12U C13U | 1.11
U11A C12A C13G | 1.53
U11A C12A C13U | 1.47
U11A C12A C13A | 1.59
U11C C12U C13G | 1.43
U11C C12U C13A | 1.4
U11C C12U C13U | 1.52
U11C C13A | 1.2
U11C C13G | 1.07
U11C C13U | 1.24
U10G C12G | 1.12
U10G C12U | 1.58
U10G C12A | 1.41
U11G C13A | 1.05
U11G C13U | 1.06
U11G C13G | 1.03
U11C C12A | 1.43
U11C C12U | 1.57

Variant | aptazyme ON/OFF ratio
U11C C12G | 1.55
U10G C13A | 1.13
U10G C13G | 1.32
U10G C13U | 1.5
U10G U11A C12G | 1.4
U10G U11A C12U | 1.15
U10G U11A C12A | 1.39
U11A C13G | 1.12
U11A C13U | 1.29
U11A C13A | 1.26
C13G | 1.13
C13U | 1.38
C13A | 1.36
U11G C12A C13A | 1.14
U11G C12A C13G | 1.22
U11G C12A C13U | 1.24
U11A C12A | 2.18
U11A C12U | 1.64
U11A C12G | 1.28
U10G U11G | 1.22
U10G U11A | 1.12
U10G U11C | 1.03

Variant | aptazyme ON/OFF ratio
U11G C12U C13A | 1.1
U11G C12U C13G | 1.04
U11G C12U C13U | 1.11
U10G U11G C12A C13A | 1.15
U10G U11G C12A C13G | 1.11
U10G U11G C12A C13U | 1.22
U10G U11C C12G | 1.43
U10G U11C C12U | 1.08
U10G U11C C12A | 1.51
U10G | 1.88
U10G U11C C12G C13A | 1.28
U10G U11C C12G C13G | 1.14
U10G U11C C12G C13U | 1.48
U11G C12G C13A | 1.2
U11G C12G C13G | 1.27
U11G C12G C13U | 1.32
U10G C12G C13G | 1.09
U10G C12G C13A | 1.17
U10G C12G C13U | 1.34
U10G U11A C13U | 1.05
U10G U11A C13G | 1.12
U10G U11A C13A | 1.15

Variant | aptazyme ON/OFF ratio
C12G | 1.45
C12U | 1.91
C12A | 1.76
U10G U11G C12G | 1.4
U10G U11G C12U | 1.38
U10G U11G C12A | 1.37
U10G C12A C13A | 1.25
U10G C12A C13G | 1.06
U10G C12A C13U | 1.19
U11A C12U C13G | 1.37
U11A C12U C13A | 1.36
U11A C12U C13U | 1.45
U10C U11G C12U C13U | 1.28
U10G U11C C12A C13A | 1.23
U10G U11C C12A C13U | 1.4
U10G U11C C12A C13G | 1.12
U11G C12U | 1.29
U11G C12A | 1.11
U11G C12G | 1.34
U10G U11A C12U C13G | 1.2
U10G U11A C12U C13U | 1.36
U10G U11A C12U C13A | 1.28

Variant | aptazyme ON/OFF ratio
C12U C13A | 1.28
C12U C13U | 1.26
C12U C13G | 1.29
C12A C13U | 1.9
C12A C13A | 1.34
C12A C13G | 1.27
U10G U11A C12G C13A | 1.16
U10G U11A C12G C13G | 1.34
U10G U11A C12G C13U | 1.33
U10G U11C C13U | 1.04
U10G U11C C13A | 1.05
U10G U11C C13G | 1.04
U11C C12A C13U | 1.31
U11C C12A C13G | 1.43
U11C C12A C13A | 1.53
U11C C12G C13U | 1.33
U11C C12G C13G | 1.49
U11C C12G C13A | 1.46
U10G U11G C13U | 1.16
U10G U11G C13G | 1.21
U10G U11G C13A | 1.26
